Source: PMC6078998, “Functional activity of the H3.3 histone chaperone complex HIRA requires trimerization of the HIRA subunit” (Nature Communications, 2018)
Where a chain is given by its changes, count along the chain named.

Columns and labels:
[1] = molecular target: T1, CABIN1 full length (FL), recombinant (UniProt Q9Y6J0 1-2220); experiment: SEC; Superose 6 10/300 GL fractionation; ~100 μM HIRA fragment incubated with ~20 μM CABIN1 FL in 500 μl, 30 min at 4 °C; 20 mM Tris pH 8.0, 300 mM NaCl, 1 mM TCEP; conditions: both partners purified
T1 construct: theoretical molecular weight printed as 246,352 Da; the discussion says 2200 amino-acid residues; Cloned into pFastBac HTA; No removal of the His tag is described; also called CABIN1 FL; FL His-CABIN1

[2] = molecular target: the molecule itself; experiment: AUC; sedimentation equilibrium of single purified proteins, 4 °C, 280 nm, 2–3 concentrations, multiple speeds; 20 mM Tris pH 8.0, 300 mM NaCl, 1 mM TCEP; Heteroanalysis and SEDPHAT; the constant of HIRA is of a monomer–trimer equilibrium model
[3] = molecular target: the molecule itself; experiment: SEC-MALS; HIRA(644–1017) purified in 500 mM NaCl

T1 sequence (Q9Y6J0 whole entry, the tested form may be a part): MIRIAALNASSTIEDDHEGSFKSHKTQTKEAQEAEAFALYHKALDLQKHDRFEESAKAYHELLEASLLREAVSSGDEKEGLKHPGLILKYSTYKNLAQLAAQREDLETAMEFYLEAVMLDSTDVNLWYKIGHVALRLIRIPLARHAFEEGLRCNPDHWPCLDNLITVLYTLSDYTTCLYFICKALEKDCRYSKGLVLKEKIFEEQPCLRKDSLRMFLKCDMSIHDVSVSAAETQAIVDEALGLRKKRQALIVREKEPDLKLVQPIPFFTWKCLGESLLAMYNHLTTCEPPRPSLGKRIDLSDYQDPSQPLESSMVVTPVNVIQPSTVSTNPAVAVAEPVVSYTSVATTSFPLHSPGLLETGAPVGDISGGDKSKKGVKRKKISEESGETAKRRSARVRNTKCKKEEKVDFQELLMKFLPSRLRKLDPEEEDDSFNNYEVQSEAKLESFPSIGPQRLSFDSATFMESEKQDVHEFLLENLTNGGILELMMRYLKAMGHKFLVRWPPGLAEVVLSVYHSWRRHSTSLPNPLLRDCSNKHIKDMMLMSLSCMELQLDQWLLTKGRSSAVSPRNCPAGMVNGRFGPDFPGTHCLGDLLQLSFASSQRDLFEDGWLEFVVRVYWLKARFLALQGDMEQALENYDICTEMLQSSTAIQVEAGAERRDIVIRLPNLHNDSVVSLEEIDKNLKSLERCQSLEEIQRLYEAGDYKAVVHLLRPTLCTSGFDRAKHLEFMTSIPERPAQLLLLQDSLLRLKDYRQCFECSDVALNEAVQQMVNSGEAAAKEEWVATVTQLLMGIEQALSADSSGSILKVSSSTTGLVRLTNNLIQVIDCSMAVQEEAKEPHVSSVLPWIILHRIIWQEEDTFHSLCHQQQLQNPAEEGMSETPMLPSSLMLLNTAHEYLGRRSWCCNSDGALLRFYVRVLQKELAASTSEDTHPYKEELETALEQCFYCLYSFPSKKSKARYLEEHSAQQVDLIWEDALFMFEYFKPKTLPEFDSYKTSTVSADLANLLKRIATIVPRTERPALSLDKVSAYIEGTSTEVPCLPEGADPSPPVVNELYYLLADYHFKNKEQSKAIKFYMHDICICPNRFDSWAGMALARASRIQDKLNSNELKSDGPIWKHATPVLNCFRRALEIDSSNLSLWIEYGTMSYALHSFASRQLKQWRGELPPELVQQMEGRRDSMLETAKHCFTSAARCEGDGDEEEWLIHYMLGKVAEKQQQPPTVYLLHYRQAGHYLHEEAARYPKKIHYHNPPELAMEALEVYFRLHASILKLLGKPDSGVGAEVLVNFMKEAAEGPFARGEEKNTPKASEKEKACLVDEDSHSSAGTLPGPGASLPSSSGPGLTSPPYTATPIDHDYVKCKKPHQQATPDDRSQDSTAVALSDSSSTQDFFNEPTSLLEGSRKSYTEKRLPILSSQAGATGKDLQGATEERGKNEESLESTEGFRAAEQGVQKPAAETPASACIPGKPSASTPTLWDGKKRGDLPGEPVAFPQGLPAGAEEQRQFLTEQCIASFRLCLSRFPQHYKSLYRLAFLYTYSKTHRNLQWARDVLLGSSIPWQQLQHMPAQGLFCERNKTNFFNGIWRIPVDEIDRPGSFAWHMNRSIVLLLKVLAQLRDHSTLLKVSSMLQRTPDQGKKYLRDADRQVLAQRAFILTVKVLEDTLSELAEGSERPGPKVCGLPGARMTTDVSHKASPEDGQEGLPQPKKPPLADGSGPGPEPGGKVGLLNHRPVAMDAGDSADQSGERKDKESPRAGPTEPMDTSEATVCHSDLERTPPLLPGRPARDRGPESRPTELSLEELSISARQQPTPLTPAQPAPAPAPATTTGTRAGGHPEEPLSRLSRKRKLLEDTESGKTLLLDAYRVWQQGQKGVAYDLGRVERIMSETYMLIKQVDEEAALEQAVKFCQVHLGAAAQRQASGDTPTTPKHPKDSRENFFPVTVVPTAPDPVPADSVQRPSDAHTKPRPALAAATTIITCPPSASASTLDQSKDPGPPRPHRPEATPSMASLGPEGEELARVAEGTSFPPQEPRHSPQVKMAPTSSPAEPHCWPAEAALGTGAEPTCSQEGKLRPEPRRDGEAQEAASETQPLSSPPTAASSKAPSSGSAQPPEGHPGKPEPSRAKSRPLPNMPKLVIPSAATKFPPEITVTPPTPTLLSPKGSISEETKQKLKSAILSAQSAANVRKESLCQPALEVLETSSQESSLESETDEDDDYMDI

B1: recombinant human HIRA(661–1017) (domain or fragment, UniProt P54198 661-1017, looked up)
chain: SPAALTAEKEAMCLSAPALALKLPIPSPQRAFTLQVSSDPSMYIEVENEVTVVGGVKLSRLKCNREGKEWETVLTSRILTAAGSCDVVCVACEKRMLSVFSTCGRRLLSPILLPSPISTLHCTGSYVMALTAAATLSVWDVHRQVVVVKEESLHSILAGSDMTVSQILLTQHGIPVMNLSDGKAYCFNPSLSTWNLVSDKQDSLAQCADFRSSLPSQDAMLCSGPLAIIQGRTSNSGRQAARLFSVPHVVQQETTLAYLENQVAAALTLQSSHEYRHWLLVYARYLVNEGFEYRLREICKDLLGPVHYSTGSQWESTVVGLRKRELLKELLPVIGQNLRFQRLFTECQEQLDILRDK
notes: Theoretical molecular weight of the homotrimer printed as 118,710 Da; also called HIRA trimer; not shown: GST, N-terminal, cleaved
- binding result [1]: binds
- stoichiometry N [2]: 3

B2: recombinant HIRA(661–1017) Δ873–904 (domain or fragment, human, UniProt P54198 661-1017, looked up)
chain: SPAALTAEKEAMCLSAPALALKLPIPSPQRAFTLQVSSDPSMYIEVENEVTVVGGVKLSRLKCNREGKEWETVLTSRILTAAGSCDVVCVACEKRMLSVFSTCGRRLLSPILLPSPISTLHCTGSYVMALTAAATLSVWDVHRQVVVVKEESLHSILAGSDMTVSQILLTQHGIPVMNLSDGKAYCFNPSLSTWNLVSDKQDSLAQCADFRSSVPHVVQQETTLAYLENQVAAALTLQSSHEYRHWLLVYARYLVNEGFEYRLREICKDLLGPVHYSTGSQWESTVVGLRKRELLKELLPVIGQNLRFQRLFTECQEQLDILRDK
notes: also called loop deletion mutant; not shown: GST, N-terminal, cleaved
- binding result [1]: binds
- stoichiometry N [2]: 3

B3: recombinant HIRA(661–1017 + FRL870-871-874AAA) (domain or fragment, human, UniProt P54198 661-1017, looked up)
chain: B1 chain with F210A, R211A, L214A
notes: not shown: GST, N-terminal, cleaved
- binding result [1]: binds

B4: HIRA(644–1017) (domain or fragment, human)
chain: GRPRKDSRLMPVSLSVQSPAALTAEKEAMCLSAPALALKLPIPSPQRAFTLQVSSDPSMYIEVENEVTVVGGVKLSRLKCNREGKEWETVLTSRILTAAGSCDVVCVACEKRMLSVFSTCGRRLLSPILLPSPISTLHCTGSYVMALTAAATLSVWDVHRQVVVVKEESLHSILAGSDMTVSQILLTQHGIPVMNLSDGKAYCFNPSLSTWNLVSDKQDSLAQCADFRSSLPSQDAMLCSGPLAIIQGRTSNSGRQAARLFSVPHVVQQETTLAYLENQVAAALTLQSSHEYRHWLLVYARYLVNEGFEYRLREICKDLLGPVHYSTGSQWESTVVGLRKRELLKELLPVIGQNLRFQRLFTECQEQLDILRDKLEGSS
notes: Cloned by NdeI/XhoI into pTXB1 (pYHD1); the forward primer has ATG before the first HIRA codon, so a start methionine may stand in front; A Se-Met labelled form was used for phasing only; Theoretical trimer weight printed as 125,815 Da; source: E. coli BL21(DE3), purified (chitin beads, on-column intein cleavage, Superdex 200); not shown: Intein (chitin beads), C-terminal, cleaved
- stoichiometry N [3]: 3
